Source: US12723255B2, “Herbicide tolerance genes and methods of use thereof” (priority 2014, dated 2026)
Like-named read-outs stand apart in the source and are kept apart here.

Legend:
[1] = kinetic analysis, non-endpoint assay at 23° C.; type: biochemical
Source text: For the fifth screen, recombinant protein for each of the eleven engineered proteins was produced and purified for an in-depth biochemical analysis. This biochemical analysis included: (1) kinetic analysis (Vmax and Km), (2) activity assays over a range of temperatures, (3) protein melting analysis, (4) activity on additional AOPP herbicides substrates, and (5) mass spectrometry analysis on peptides to confirm identity. The biochemical analyses were also done with purified recombinant wild-type protein and MON-HT55 protein for comparison. For the kinetic analysis, a non-endpoint assay was conducted at 23° C. with either quizalofop-P or 2,4-D as substrate. The recombinant proteins for these assays were produced in bacteria and purified using a 6-His tag fused at the C-terminal end of the protein. Results of the kinetic analysis with either quizalofop-P or 2,4-D as substrate are presented for ten of the engineered proteins, wild-type protein, and MON-HT55 protein in Table 7 (standard error is shown in parenthetical). Vmax is expressed as specific activity, umol herbicide product mg enzyme-1 min-1; Km expressed as mM herbicide substrate. […] The differentiation of the protein kinetics for MON-HTI and MON-HT7 were surprising because there are only four amino acid differences between MON-HT1 and MON-HT7. Specifically, MON-HT1 has the following amino acids at the indicated position: 182; F105; T112; and V273, and MON-HT7 has the following amino acids at the indicated position: L82; V105; S112; and A273.
Kinetic analysis using a non-endpoint assay was conducted at 23° C. with either quizalofop-P or 2,4-D as substrate, as detailed above for purified protein of the wild-type enzyme, MON-HT1, MON-HT13, MON-HT15, and MON-HT17.

[2] = enzyme activity assay at 23° C. with purified enzyme; type: biochemical; conditions: wild-type set at 100%
Description: The enzyme activity of MON-HT protein variants with haloxyfop, fenoxaprop, fluazifop, and dichlorprop as substrates was determined using the enzyme activity assay conducted at 23° C. with purified enzyme. The activity was recorded as the maximum activity as a percentage of the wild-type enzyme's activity, which was set at 100%.

[3] = type: biochemical; conditions: substrate quizalofop-P
Description: To analyze these engineered proteins for activity in higher temperatures, the in vitro enzyme assay in Example 1 was modified to specify pre-heating all of the assay components to the desired temperature for 5 minutes before combining the components and then maintaining the reaction at the desired temperature for the duration of the reaction. To normalize the assay measurements, quizalofop-P was used as the substrate for the reaction and enzyme activity was normalized based on the 25° C. readings. Using these parameters, the temperature at which the enzyme activity was half of maximum (T1/2) was calculated. The T1/2 for MON-HT55 was calculated to be 29° C., and the T1/2 for wild-type RdpA was calculated to be 38° C. (FIG. 2A).
Enzyme activity over a range of temperatures was analyzed in-depth for MON-HT1, MON-HT2, MON-HT7, and MON-HT8. These assays were conducted as described above. Quizalofop-P or 2,4-D was used as the substrate for these reactions and activity was normalized based on the activity of the wild-type enzyme at 25° C. The activity curves obtained are presented in FIG. 2B (with quizalofop-P as the substrate) and FIG. 2C (with 2,4-D as the substrate). Using quizalofop-P as the substrate, MON-HT55 was the most temperature sensitive, with a T1/2 of 29° C. […] MON-HTI was slightly less temperature sensitive, with a T1/2 about 1° C. higher than the wild-type enzyme.

[4] = type: physicochemical
Description: A protein melting analysis was also conducted. For the protein melting determinations, purified enzyme was added to 96-well microtiter plates in standard storage buffer (30 mM Tris pH7.5, 150 mM NaCl) with or without 50 uM Fe2+ and 1.0 mM aKG. Protein unfolding was then detected with SYPRO® orange protein gel stain (Invitrogen™ catalog #S6651, Life Technologies, Grand Island, NY) in a BioRad CFX96™ Real time PCR machine (BioRad, Hercules, CA) with readings taken between 10° C. to 95° C. in 0.5° C. steps. […] In contrast, 50 uM Fe2+ and 1.0 mM aKG had little effect on the stability of any of the engineered proteins. MON-HT55, MON-HT3, MON-HT4, MON-HT6, and MON-HT10 had melting temperatures in the range of 41° C. to 48° C., which is below the melting temperature of the wild-type enzyme. MON-HT1, MON-HT2, MON-HT5, MON-HT7, MON-HT8, and MON-HT9 had melting temperatures between 58° C. and 67° C., which is 8° C. to 17° C. higher than the wild-type enzyme. For MON-HT7 and MON-HT1, the difference in melting point was 11° C. in buffer without Fe2+ and aKG and 8° C. in buffer with Fe2+ and aKG. This was surprising since there are only four amino acid differences between the two enzymes.
A protein melting analysis was conducted as detailed above. The melting temperatures of MON-HT13, MON-HT15, and MON-HT17 was similar to the melting temperature of MON-HT1 with T1/2 in buffer in the range of 55-58° C., and with T1/2 in buffer plus Fe2+ and aKG in the range of 60-62° C.

[5] = enzyme activity assay at 23° C. with purified enzyme; type: biochemical; conditions: percentage of wild-type RdpA, set at 100%
Description: The enzyme activity of MON-HT protein variants with triclopyr, fluroxypyr, MCPA, MCPB, mecoprop, as substrates was determined using the enzyme activity assay conducted at 23° C. with purified enzyme. The activity was recorded as the maximum activity as a percentage of the wild-type RdpA enzyme's activity, which was set at 100%. […] The enzymatic activity with mecoprop as a substrate was reduced for each of the MON-HT1, MON-HT13, MON-HT15, and MON-HT17 variants compared to the wild-type RdpA enzyme. An unexpected result was that enzymatic activity with MCPA as a substrate was roughly 6-fold greater for MON-HT1, and approximately 10-fold greater for MON-HT13, MON-HT15, and MON-HT17 compared to the wild-type RdpA enzyme.

B1: Wild-type RdpA: wild-type RdpA enzyme from Sphingobium herbicidovorans, SEQ ID NO:60 (protein)
chain: MHAALSPLSQRFERIAVQPLTGVLGAEITGVDLREPLDDSTWNEILDAFHTYQVIYFPGQAITNEQHIAFSRRFGPVDPVPLLKSIEGYPEVQMIRREANESGRVIGDDWHTDSTFLDAPPAAVVMRAIDVPEHGGDTGFLSMYTAWETLSPTMQATIEGLNVVHSATRVFGSLYQAQNRRFSNTSVKVMDVDAGDRETVHPLVVTHPGSGRKGLYVNQVYCQRIEGMTDAESKPLLQFLYEHATRFDFTCRVRWKKDQVLVWDNLCTMHRAVPDYAGKFRYLTRTTVGGVRPAR
modifications: Sphingobium herbicidovorans
Vmax Quizalofop ([1]; 23° C., purified His-tagged protein, standard error in parenthetical): 1.38 (−0.06) umol herbicide product mg enzyme-1 min-1 | Km ([1]; 23° C., purified His-tagged protein, standard error in parenthetical, read-out: Km Quizalofop): 270 µM | Vmax 2,4-D ([1]; Table 10 series, unit as defined): 0.25 (0.01) umol herbicide product mg enzyme-1 min-1 | Km ([1]; Table 10 series, unit as defined, read-out: Km 2,4-D): 130 µM | Vmax Quizalofop ([1]; Table 10 series, 23° C., unit as defined): 2.76 (0.11) umol herbicide product mg enzyme-1 min-1 | Km ([1]; Table 10 series, 23° C., unit as defined, read-out: Km Quizalofop): 90 µM | Vmax 2,4-D ([1]; standard error in parenthetical, NDB = activity not robust enough for kinetic characterization): 0.10 (−0.01) umol herbicide product mg enzyme-1 min-1 | Km ([1]; standard error in parenthetical, NDB = activity not robust enough for kinetic characterization, read-out: Km 2,4-D): 30 µM | maximum activity as a percentage of the wild-type enzyme's activity, Haloxyfop ([2]; purified enzyme): 100% | maximum activity as a percentage of the wild-type enzyme's activity, Dichlorprop [2]: 100% | maximum activity as a percentage of the wild-type enzyme's activity, Fenoxaprop [2]: 100% | maximum activity as a percentage of the wild-type enzyme's activity, Fluazifop [2]: 100% | activity of the wild-type enzyme at 46° C. and 47° C. [3]: completely inactive | inactivation of the wild-type enzyme at 42° C. and 41° C. [3]: 90 % inactive | Melting temp, Buffer ([4]; Table 11 series): 43 °C | Melting temp, Buffer plus Fe2+ and aKG ([4]; Table 11 series): 53 °C | T1/2, temperature where 50% of the protein was unfolded, Buffer plus Fe2+ and aKG ([4]; buffer): 50 °C | T1/2, temperature where 50% of the protein was unfolded, Buffer ([4]; buffer, pH 7.5): 42 °C | MCPA Km [5]: 100% | MCPA Vmax [5]: 100% | Mecoprop Km [5]: 100% | Mecoprop Vmax [5]: 100%
